Results reported in patent US20050244864A1, “Development and use of fluorescent probes of unbound analytes” (priority 2004, published 2005).

What was measured:
Assay type in all cases: binding
[1] = Probe fluorescence ratio response to palmitate:BSA complex, relative to ADIFAB2 (ΔR/ΔRAD2); details: fluorescence response (R-Ro) relative to ADIFAB2; palmitate
How it was run: (§1)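 Complexes clamp unbound FFA at fixed levels (ΔR ≈0.4 by ADIFAB2, [FFAu] 100–1000 nM). Plate wells: complex or FFA-free BSA at 6 μM BSA in HEPES; probe added after background read. Ex 375/em 550 and 457 nm; ratio R = F550/F457.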

[2] = Probe fluorescence ratio response to linoleate:BSA complex, relative to ADIFAB2 (ΔR/ΔRAD2); details: fluorescence response (R-Ro) relative to ADIFAB2; linoleate
How it was run: as §1

[3] = Probe fluorescence ratio response to arachidonate:BSA complex, relative to ADIFAB2 (ΔR/ΔRAD2); details: fluorescence response (R-Ro) relative to ADIFAB2; arachidonate
How it was run: as §1

[4] = Probe fluorescence ratio response to oleate:BSA complex, relative to ADIFAB2 (ΔR/ΔRAD2); details: fluorescence response (R-Ro) relative to ADIFAB2; oleate
How it was run: as §1

[5] = Probe fluorescence ratio response to linolenate:BSA complex, relative to ADIFAB2 (ΔR/ΔRAD2); details: fluorescence response (R-Ro) relative to ADIFAB2; linolenate
How it was run: as §1

[6] = Probe fluorescence ratio response to stearate:BSA complex, relative to ADIFAB2 (ΔR/ΔRAD2); details: fluorescence response (R-Ro) relative to ADIFAB2
[7] = Probe fluorescence ratio response to palmitoleate:BSA complex, relative to ADIFAB2 (ΔR/ΔRAD2); details: fluorescence response (R-Ro) relative to ADIFAB2

Molecule | ΔR/ΔRAD2 PA [1] | ΔR/ΔRAD2 LA [2] | ΔR/ΔRAD2 AA [3] | ΔR/ΔRAD2 OA [4] | ΔR/ΔRAD2 LNA [5] | ΔR/ΔRAD2 SA [6] | ΔR/ΔRAD2 POA [7]
L1P1 C3: acrylodan-labeled rI-FABP mutein: Y14 M, L38 wt, L72 W, Y117 wt (protein, UniProt P02693 2-132, looked up, variant Y14M L72W, acrylodan label) Fatty acid-binding protein, …: AFDGTWKVDRNENMEKFMEKMGINVVKRKLGAHDNLKLTITQEGNKFTVKESSNFRNIDVVFELGVDFAYSWADGTELTGTWTMEGNKLVGKFKRVDNGKELIAVREISGNELIQTYTYEGVEAKRIFKKE | −0.4 | −1.1 | −0.9 | −1.3 | −1.0 |  | 
L1P17 A1: acrylodan-labeled rI-FABP mutein: Y14 I, L38 wt, L72 W, Y117 wt (protein, UniProt P02693 2-132, looked up, variant Y14I L72W, acrylodan label) Fatty acid-binding protein, …: AFDGTWKVDRNENIEKFMEKMGINVVKRKLGAHDNLKLTITQEGNKFTVKESSNFRNIDVVFELGVDFAYSWADGTELTGTWTMEGNKLVGKFKRVDNGKELIAVREISGNELIQTYTYEGVEAKRIFKKE | −0.4 | −1.0 | −0.8 | −1.2 | −0.9 |  | 
L2P8B8: acrylodan-labeled rI-FABP-L72A mutein: M18 WT, G31 WT, F55 WT, A73 F (protein, UniProt P02693 2-132, looked up, variant L72A A73F, acrylodan label, acrylodan-labeled rI-FABP-L72A mutein: M18 WT, G31 WT, F55 WT, A73 F) Fatty acid-binding protein, …: AFDGTWKVDRNENYEKFMEKMGINVVKRKLGAHDNLKLTITQEGNKFTVKESSNFRNIDVVFELGVDFAYSAFDGTELTGTWTMEGNKLVGKFKRVDNGKELIAVREISGNELIQTYTYEGVEAKRIFKKE | 1.1 | 1.2 | 1.1 | 0.6 | 1.8 | 0.4 | 2.4
L2P1E6: acrylodan-labeled rI-FABP-L72A mutein: M18 L, G31 WT, F55 WT, A73 L (protein, UniProt P02693 2-132, looked up, variant M18L L72A A73L, acrylodan label) Fatty acid-binding protein, …: AFDGTWKVDRNENYEKFLEKMGINVVKRKLGAHDNLKLTITQEGNKFTVKESSNFRNIDVVFELGVDFAYSALDGTELTGTWTMEGNKLVGKFKRVDNGKELIAVREISGNELIQTYTYEGVEAKRIFKKE | 0.0 | 0.1 | 0.4 | 0.1 | 0.1 | 0.2 | 0.1
L2P16A3: acrylodan-labeled rI-FABP-L72A mutein: M18 I, G31 L, F55 WT, A73 G (protein, UniProt P02693 2-132, looked up, variant M18I G31L L72A A73G, acrylodan label, acrylodan-labeled rI-FABP-L72A mutein: M18 I, G31 L, F55 WT, A73 G) Fatty acid-binding protein, …: AFDGTWKVDRNENYEKFIEKMGINVVKRKLLAHDNLKLTITQEGNKFTVKESSNFRNIDVVFELGVDFAYSAGDGTELTGTWTMEGNKLVGKFKRVDNGKELIAVREISGNELIQTYTYEGVEAKRIFKKE | 1.1 | 1.1 | 1.0 | 0.6 | 1.5 | 0.3 | 1.4
L2P7F4: acrylodan-labeled rI-FABP-L72A mutein: M18 V, G31 V, F55 WT, A73 I (protein, UniProt P02693 2-132, looked up, variant M18V G31V L72A A73I, acrylodan label, acrylodan-labeled rI-FABP-L72A mutein: M18 V, G31 V, F55 WT, A73 I) Fatty acid-binding protein, …: AFDGTWKVDRNENYEKFVEKMGINVVKRKLVAHDNLKLTITQEGNKFTVKESSNFRNIDVVFELGVDFAYSAIDGTELTGTWTMEGNKLVGKFKRVDNGKELIAVREISGNELIQTYTYEGVEAKRIFKKE | 1.3 | 1.1 | 0.8 | 0.6 | 1.5 | 0.3 | 1.3
L2P21G3: acrylodan-labeled rI-FABP-L72A mutein: M18 I, G31 M, F55 M, A73 WT (protein, UniProt P02693 2-132, looked up, variant M18I G31M F55M L72A, acrylodan label, acrylodan-labeled rI-FABP-L72A mutein: M18 I, G31 M, F55 M, A73 WT) Fatty acid-binding protein, …: AFDGTWKVDRNENYEKFIEKMGINVVKRKLMAHDNLKLTITQEGNKFTVKESSNMRNIDVVFELGVDFAYSAADGTELTGTWTMEGNKLVGKFKRVDNGKELIAVREISGNELIQTYTYEGVEAKRIFKKE | 1.1 | 1.1 | 1.0 | 0.6 | 1.4 | 0.3 | 1.4
L2P23G7: acrylodan-labeled rI-FABP-L72A mutein: M18 V, G31 F, F55 L, A73 WT (protein, UniProt P02693 2-132, looked up, variant M18V G31F F55L L72A, acrylodan label, acrylodan-labeled rI-FABP-L72A mutein: M18 V, G31 F, F55 L, A73 WT) Fatty acid-binding protein, …: AFDGTWKVDRNENYEKFVEKMGINVVKRKLFAHDNLKLTITQEGNKFTVKESSNLRNIDVVFELGVDFAYSAADGTELTGTWTMEGNKLVGKFKRVDNGKELIAVREISGNELIQTYTYEGVEAKRIFKKE | 1.0 | 1.0 | 0.9 | 0.6 | 1.2 | 0.4 | 1.4
L2P22H10: acrylodan-labeled rI-FABP-L72A mutein: M18 I, G31 WT, F55 G, A73 M (protein, UniProt P02693 2-132, looked up, variant M18I F55G L72A A73M, acrylodan label, acrylodan-labeled rI-FABP-L72A mutein: M18 I, G31 WT, F55 G, A73 M) Fatty acid-binding protein, …: AFDGTWKVDRNENYEKFIEKMGINVVKRKLGAHDNLKLTITQEGNKFTVKESSNGRNIDVVFELGVDFAYSAMDGTELTGTWTMEGNKLVGKFKRVDNGKELIAVREISGNELIQTYTYEGVEAKRIFKKE | 1.1 | 1.1 | 0.9 | 0.6 | 1.3 | 0.4 | 1.2
L1P12 E11: acrylodan-labeled rI-FABP mutein: Y14 L, L38 wt, L72 W, Y117 wt (protein, UniProt P02693 2-132, looked up, variant Y14L L72W, acrylodan label) Fatty acid-binding protein, …: AFDGTWKVDRNENLEKFMEKMGINVVKRKLGAHDNLKLTITQEGNKFTVKESSNFRNIDVVFELGVDFAYSWADGTELTGTWTMEGNKLVGKFKRVDNGKELIAVREISGNELIQTYTYEGVEAKRIFKKE | −0.1 | −0.7 | −0.5 | −1.0 | −0.7 |  | 
L2P9E12: acrylodan-labeled rI-FABP-L72A mutein: M18 L, G31 WT, F55 L, A73 I (protein, UniProt P02693 2-132, looked up, variant M18L F55L L72A A73I, acrylodan label, acrylodan-labeled rI-FABP-L72A mutein: M18 L, G31 WT, F55 L, A73 I) Fatty acid-binding protein, …: AFDGTWKVDRNENYEKFLEKMGINVVKRKLGAHDNLKLTITQEGNKFTVKESSNLRNIDVVFELGVDFAYSAIDGTELTGTWTMEGNKLVGKFKRVDNGKELIAVREISGNELIQTYTYEGVEAKRIFKKE | 1.1 | 0.7 | 0.6 | 0.6 | 0.9 | 0.4 | 0.8
L2P8F11: acrylodan-labeled rI-FABP-L72A mutein: M18 WT, G31 WT, F55 WT, A73 I (protein, UniProt P02693 2-132, looked up, variant L72A A73I, acrylodan label, acrylodan-labeled rI-FABP-L72A mutein: M18 WT, G31 WT, F55 WT, A73 I) Fatty acid-binding protein, …: AFDGTWKVDRNENYEKFMEKMGINVVKRKLGAHDNLKLTITQEGNKFTVKESSNFRNIDVVFELGVDFAYSAIDGTELTGTWTMEGNKLVGKFKRVDNGKELIAVREISGNELIQTYTYEGVEAKRIFKKE | 0.0 | 0.0 | 0.4 | 0.0 | 0.1 | 0.3 | 0.1
